Assay results from patent publication US20240084023A1 (NGM BIOPHARMACEUTICALS, published 2024).

Assays:
Assay in all cases: flow cytometry on transfected 293XP cells
[1] = biological target: T1, GCGR extracellular domain alanine mutant L32A (human, UniProt P47871 26-136, limits assumed)
T1 construct: expressed in 293XP cells
T1 chain: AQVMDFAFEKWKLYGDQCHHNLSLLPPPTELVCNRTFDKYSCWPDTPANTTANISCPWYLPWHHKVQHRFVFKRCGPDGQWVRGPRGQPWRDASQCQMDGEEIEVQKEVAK
Method: (§1) To assist in gathering information on the GCGR epitope that the 6B5 binning group bound to, “alanine scanning mutagenesis” was undertaken. These alanine scanning mutagenesis platform is a technique used for mapping both linear and conformational antigen epitopes by evaluating the effects of point mutations across a target protein. Single residues in a target protein are replaced by alanine one at a time to construct a mutant library. Each variant is assayed for its ability to bind to an antibody of interest. […] Amino acids across the extracellular domain of GCGR were mutated to alanine and the anti-GCGR antibody Hz6B5 was tested for binding to the alanine mutants.
(§2) The wild-type GCGR extracellular domain and the alanine mutants were each transfected into 293XP cells and incubated for 24 hours. Antibody Hz6B5 was incubated with the transfected cells for 30 minutes at 4° C. After washing with PBS/1% BSA/0.1% azide, the cells were incubated with a labeled anti-mouse Fc antibody (Jackson Immunoresearch) for 30 minutes at 4° C. After washing with PBS/1% BSA/0.1% azide, the cells were analyzed using a flow cytometer BD (FACSCalibur instrument) and cytometric analytical software (FlowJo). A serum sample from a mouse immunized with human GCGR was used as positive control to confirm expression of the alanine mutants.

[2] = biological target: T2, GCGR extracellular domain alanine mutant W83A (human, UniProt P47871 26-136, limits assumed)
T2 construct: expressed in 293XP cells
T2 chain: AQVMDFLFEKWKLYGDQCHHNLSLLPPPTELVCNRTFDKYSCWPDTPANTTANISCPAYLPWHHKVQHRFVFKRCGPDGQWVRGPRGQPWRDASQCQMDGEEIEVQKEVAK
Method: as §1, §2

[3] = biological target: T3, GCGR extracellular domain alanine mutant Y84A (human, UniProt P47871 26-136, limits assumed)
T3 construct: expressed in 293XP cells
T3 chain: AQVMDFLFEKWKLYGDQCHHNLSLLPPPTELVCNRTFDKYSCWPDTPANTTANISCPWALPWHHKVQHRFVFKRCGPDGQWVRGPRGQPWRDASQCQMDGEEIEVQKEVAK
Method: as §1, §2

[4] = biological target: T4, GCGR extracellular domain alanine mutant Y65A (human, UniProt P47871 26-136, limits assumed)
T4 construct: expressed in 293XP cells
T4 chain: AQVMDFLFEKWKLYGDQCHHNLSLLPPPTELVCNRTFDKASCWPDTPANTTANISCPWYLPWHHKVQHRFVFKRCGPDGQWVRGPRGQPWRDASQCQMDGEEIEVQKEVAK
Method: as §1, §2

[5] = biological target: T5, GCGR extracellular domain alanine mutant W36A (human, UniProt P47871 26-136, limits assumed)
T5 construct: expressed in 293XP cells
T5 chain: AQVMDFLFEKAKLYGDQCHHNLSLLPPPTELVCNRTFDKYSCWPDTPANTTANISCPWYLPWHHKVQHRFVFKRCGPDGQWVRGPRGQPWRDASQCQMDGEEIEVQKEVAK
Method: as §1, §2

[6] = biological target: T6, GCGR extracellular domain alanine mutant R108A (human, UniProt P47871 26-136, limits assumed)
T6 construct: expressed in 293XP cells
T6 chain: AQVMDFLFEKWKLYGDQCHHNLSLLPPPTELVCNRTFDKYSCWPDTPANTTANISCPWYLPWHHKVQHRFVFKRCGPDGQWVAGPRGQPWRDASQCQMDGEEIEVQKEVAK
Method: as §1, §2

[7] = biological target: T7, GCGR extracellular domain alanine mutant F62A (human, UniProt P47871 26-136, limits assumed)
T7 construct: expressed in 293XP cells
T7 chain: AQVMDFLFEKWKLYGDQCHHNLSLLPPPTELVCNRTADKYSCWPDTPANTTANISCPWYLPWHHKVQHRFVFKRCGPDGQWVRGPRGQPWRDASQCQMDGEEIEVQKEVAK
Method: as §1, §2

[8] = biological target: T8, GCGR extracellular domain alanine mutant F31A (human, UniProt P47871 26-136, limits assumed)
T8 construct: expressed in 293XP cells
T8 chain: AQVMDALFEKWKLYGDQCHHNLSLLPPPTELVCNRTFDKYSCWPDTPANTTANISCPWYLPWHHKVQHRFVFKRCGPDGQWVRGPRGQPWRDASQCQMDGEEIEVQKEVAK
Method: as §1, §2

[9] = biological target: T9, GCGR extracellular domain alanine mutant K98A (human, UniProt P47871 26-136, limits assumed)
T9 construct: expressed in 293XP cells
T9 chain: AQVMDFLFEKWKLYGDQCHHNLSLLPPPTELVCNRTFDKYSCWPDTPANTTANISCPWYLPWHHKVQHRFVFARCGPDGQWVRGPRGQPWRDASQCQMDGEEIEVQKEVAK
Method: as §1, §2

[10] = biological target: T10, GCGR extracellular domain alanine mutant T75A (human, UniProt P47871 26-136, limits assumed)
T10 construct: expressed in 293XP cells
T10 chain: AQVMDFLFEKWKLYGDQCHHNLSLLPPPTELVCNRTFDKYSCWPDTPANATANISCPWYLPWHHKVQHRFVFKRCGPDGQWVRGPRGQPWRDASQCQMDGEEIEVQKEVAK
Method: as §1, §2

[11] = biological target: T11, GCGR extracellular domain alanine mutant Q113A (human, UniProt P47871 26-136, limits assumed)
T11 construct: expressed in 293XP cells
T11 chain: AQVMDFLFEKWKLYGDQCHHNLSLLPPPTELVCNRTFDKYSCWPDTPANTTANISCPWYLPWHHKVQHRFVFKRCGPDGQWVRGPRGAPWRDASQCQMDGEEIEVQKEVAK
Method: as §1, §2

[12] = biological target: T12, GCGR extracellular domain alanine mutant H45A (human, UniProt P47871 26-136, limits assumed)
T12 construct: expressed in 293XP cells
T12 chain: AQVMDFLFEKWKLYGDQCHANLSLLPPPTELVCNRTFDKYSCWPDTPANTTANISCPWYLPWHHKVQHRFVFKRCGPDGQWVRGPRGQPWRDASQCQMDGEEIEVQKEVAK
Method: as §1, §2

[13] = biological target: T13, GCGR extracellular domain alanine mutant R111A (human, UniProt P47871 26-136, limits assumed)
T13 construct: expressed in 293XP cells
T13 chain: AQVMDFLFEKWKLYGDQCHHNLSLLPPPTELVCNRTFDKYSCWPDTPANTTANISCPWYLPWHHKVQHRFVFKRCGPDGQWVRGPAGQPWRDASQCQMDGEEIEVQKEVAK
Method: as §1, §2

B1: anti-GCGR antibody Hz6B5 (antibody, V domains shown)
VH: QVQLVQSGAEVKKPGSSVKVSCKASGFTFTNHWLGWVRQAPGQGLEWIGDIYPGGYYINYNEKFKGRVTITADESTSTAYMELSSLRSEDTAVYYCARHTNYGSDYWGQGTTVTVSS
VL: DVVMTQSPLSLPVTLGQPASISCRSSQSIVDSYGNTFLEWYQQRPGQSPRLLIYKVSNRLSGVPDRFSGSGSGTDFTLKISRVEAEDVGVYYCFQGSHVPWTFGQGTKLEIK
notes: Humanized 6B5
% positive cells [1]: 76.9% | % positive cells [2]: 72.6% | % positive cells [3]: 63.4% | % positive cells [4]: 64.8% | % positive cells [5]: 70.9% | % positive cells [6]: 87% | % positive cells [7]: 62.8% | % positive cells [8]: 85.1% | % positive cells [9]: 82.5% | % positive cells [10]: 84.9% | % positive cells [11]: 83.4% | % positive cells [12]: 81.3% | % positive cells [13]: 84.5%
